Reference: paper PMC6144793 (Nucleic Acids Research, 2018)

Target: the molecule itself
Assay: SEC-MALS

B1: His6-tagged Hvo_0019 (enzyme, Haloferax volcanii)
chain: MSVRDEFDAWAADGRDKGMEDRHWHTAKHALARMPVEEGDTVVDLGTGSGYALRALRDTKGIGRGFGLDGSPEMVQNARAYTDTDDLSFLVGDFDDLPFDDDSVDHVWSMEAFYYAADPHHTLEEIARILKPGGTFYCAVNYYEENVHSHEWQEHISIDMTRWSHAEYREAFRDAGLHVAEQDSIADLDIDIPAATEFPTDDWETREAMVERYRTFGTLLTVGVAP
Does B1 bind?
Result: binds
